From patent US20090149389A1 (PURDUE RESEARCH FOUNDATION, published 2009)

Experiments:
Experiment in all cases: cell-based or functional assay
CHK1 (h) = biological target: T1, CHK1 (h) (human (h), UniProt O14757 1-476)
T1 sequence (looked up): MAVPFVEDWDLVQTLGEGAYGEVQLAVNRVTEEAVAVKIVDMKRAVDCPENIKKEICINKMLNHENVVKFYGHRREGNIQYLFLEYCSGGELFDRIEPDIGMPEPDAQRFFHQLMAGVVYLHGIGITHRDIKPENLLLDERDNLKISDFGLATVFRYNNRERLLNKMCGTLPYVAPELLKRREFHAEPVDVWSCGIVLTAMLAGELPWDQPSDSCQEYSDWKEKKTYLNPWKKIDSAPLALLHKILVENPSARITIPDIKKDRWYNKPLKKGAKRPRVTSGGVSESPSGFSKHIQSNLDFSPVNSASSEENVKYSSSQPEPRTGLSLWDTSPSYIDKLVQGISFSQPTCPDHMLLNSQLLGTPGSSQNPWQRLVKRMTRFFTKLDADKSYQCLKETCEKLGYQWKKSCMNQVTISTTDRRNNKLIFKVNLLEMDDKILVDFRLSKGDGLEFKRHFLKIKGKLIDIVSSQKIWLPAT

DYRK2 (h) = biological target: T2, DYRK2 (h) (human (h), UniProt Q92630 1-601, limits assumed)
T2 sequence (looked up): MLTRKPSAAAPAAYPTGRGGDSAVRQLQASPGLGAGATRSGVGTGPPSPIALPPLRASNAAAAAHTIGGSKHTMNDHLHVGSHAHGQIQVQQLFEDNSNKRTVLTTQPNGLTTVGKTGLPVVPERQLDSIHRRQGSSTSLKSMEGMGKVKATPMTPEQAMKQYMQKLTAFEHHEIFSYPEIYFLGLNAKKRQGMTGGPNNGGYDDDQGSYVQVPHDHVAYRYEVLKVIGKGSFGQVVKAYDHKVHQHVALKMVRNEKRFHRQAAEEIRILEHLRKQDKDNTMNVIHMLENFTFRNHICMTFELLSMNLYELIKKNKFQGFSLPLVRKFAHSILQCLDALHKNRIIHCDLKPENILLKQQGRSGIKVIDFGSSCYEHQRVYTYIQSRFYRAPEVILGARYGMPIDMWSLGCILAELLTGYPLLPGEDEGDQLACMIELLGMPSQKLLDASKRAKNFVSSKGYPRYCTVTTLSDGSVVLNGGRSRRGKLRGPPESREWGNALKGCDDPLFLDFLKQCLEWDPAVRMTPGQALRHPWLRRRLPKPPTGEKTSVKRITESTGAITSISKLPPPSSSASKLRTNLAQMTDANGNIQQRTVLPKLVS

ASK1 (h) = ASK1 (h) (human (h), UniProt Q99683 649-946, limits assumed)
Ret (h) = biological target: T3, Ret (h) (human (h), UniProt P07949 658-1114, limits assumed)
T3 sequence (looked up): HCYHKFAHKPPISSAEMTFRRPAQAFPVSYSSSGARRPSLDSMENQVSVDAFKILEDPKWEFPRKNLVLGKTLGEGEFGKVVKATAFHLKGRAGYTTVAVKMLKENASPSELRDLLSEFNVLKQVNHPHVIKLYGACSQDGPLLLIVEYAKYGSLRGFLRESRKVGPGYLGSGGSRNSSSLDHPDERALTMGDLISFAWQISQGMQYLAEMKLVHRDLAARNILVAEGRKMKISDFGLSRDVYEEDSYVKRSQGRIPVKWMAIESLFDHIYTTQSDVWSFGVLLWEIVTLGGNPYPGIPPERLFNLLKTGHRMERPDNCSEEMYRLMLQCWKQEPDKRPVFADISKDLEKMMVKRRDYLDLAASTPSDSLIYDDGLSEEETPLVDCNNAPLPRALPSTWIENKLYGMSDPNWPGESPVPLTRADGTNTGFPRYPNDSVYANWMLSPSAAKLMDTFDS

Tie2 (h) = Tie2 (h) (human (h), UniProt Q02763 771-1124, limits assumed)
MKK4 (m) = biological target: T4, MKK4 (m) (mouse (m), UniProt P47809 35-397, limits assumed)
T4 sequence (looked up): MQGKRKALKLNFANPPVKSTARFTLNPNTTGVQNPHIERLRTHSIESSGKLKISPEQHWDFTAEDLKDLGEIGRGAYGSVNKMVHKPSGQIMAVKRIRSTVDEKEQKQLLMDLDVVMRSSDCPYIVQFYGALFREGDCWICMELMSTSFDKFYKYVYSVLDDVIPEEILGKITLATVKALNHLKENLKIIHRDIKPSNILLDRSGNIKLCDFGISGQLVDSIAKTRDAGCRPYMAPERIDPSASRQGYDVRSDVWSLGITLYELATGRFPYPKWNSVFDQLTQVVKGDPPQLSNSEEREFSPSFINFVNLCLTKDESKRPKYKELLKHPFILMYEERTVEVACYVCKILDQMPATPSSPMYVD

JNK1α1 (h) = JNK1α1 (h) (human (h), UniProt P45983-2 1-384)
KDR (tl) = KDR (tl) (UniProt P35968 790-1356, limits assumed)
BTK (h) = BTK (h) (human (h), UniProt Q06187 1-659)
Lck (h) = Lck (h) (human (h), UniProt P06239 1-509)
L1MK1 (h) = L1MK1 (h) (human (h), UniProt P53667 285-638, limits assumed)
PRAK = biological target: T5, PRAK (UniProt Q8IW41 1-473, limits assumed)
T5 sequence (looked up): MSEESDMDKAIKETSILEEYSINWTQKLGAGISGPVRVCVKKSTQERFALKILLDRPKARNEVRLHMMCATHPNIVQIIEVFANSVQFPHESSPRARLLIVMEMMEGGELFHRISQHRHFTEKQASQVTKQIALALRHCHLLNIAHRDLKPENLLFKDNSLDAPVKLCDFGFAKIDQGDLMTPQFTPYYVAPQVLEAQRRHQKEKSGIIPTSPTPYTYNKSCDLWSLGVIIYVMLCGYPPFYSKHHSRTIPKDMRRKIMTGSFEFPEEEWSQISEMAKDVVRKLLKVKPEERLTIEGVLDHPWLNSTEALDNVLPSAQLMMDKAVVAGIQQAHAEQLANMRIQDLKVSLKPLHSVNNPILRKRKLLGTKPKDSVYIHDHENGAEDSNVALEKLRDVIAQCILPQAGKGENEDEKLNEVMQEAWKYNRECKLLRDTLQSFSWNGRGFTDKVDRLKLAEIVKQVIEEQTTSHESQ

L1MK1 (h), sequence (P53667 285-638 limits assumed): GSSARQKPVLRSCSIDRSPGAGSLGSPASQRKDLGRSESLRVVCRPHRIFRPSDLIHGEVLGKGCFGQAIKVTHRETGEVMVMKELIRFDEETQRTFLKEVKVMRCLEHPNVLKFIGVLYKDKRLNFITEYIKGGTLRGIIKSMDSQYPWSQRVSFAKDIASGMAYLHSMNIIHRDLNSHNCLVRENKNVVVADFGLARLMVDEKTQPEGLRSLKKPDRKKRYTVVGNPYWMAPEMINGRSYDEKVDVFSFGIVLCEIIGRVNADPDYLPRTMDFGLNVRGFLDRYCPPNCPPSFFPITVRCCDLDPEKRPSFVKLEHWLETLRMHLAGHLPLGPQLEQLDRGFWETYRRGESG
Lck (h), sequence (P06239 whole entry): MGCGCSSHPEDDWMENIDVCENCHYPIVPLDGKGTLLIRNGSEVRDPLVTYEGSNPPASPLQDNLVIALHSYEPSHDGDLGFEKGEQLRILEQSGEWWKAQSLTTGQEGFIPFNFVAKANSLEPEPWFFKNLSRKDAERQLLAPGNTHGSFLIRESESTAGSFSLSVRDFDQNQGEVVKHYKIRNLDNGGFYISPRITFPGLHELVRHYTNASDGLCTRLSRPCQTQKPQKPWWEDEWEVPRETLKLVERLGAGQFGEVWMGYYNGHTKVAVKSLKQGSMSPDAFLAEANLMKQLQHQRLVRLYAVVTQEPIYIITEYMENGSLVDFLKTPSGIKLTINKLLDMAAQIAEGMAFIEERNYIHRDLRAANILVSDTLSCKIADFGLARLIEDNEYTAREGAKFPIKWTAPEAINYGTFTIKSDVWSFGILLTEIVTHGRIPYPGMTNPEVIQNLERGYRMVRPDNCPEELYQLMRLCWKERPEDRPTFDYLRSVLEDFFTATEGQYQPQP
BTK (h), sequence (Q06187 whole entry): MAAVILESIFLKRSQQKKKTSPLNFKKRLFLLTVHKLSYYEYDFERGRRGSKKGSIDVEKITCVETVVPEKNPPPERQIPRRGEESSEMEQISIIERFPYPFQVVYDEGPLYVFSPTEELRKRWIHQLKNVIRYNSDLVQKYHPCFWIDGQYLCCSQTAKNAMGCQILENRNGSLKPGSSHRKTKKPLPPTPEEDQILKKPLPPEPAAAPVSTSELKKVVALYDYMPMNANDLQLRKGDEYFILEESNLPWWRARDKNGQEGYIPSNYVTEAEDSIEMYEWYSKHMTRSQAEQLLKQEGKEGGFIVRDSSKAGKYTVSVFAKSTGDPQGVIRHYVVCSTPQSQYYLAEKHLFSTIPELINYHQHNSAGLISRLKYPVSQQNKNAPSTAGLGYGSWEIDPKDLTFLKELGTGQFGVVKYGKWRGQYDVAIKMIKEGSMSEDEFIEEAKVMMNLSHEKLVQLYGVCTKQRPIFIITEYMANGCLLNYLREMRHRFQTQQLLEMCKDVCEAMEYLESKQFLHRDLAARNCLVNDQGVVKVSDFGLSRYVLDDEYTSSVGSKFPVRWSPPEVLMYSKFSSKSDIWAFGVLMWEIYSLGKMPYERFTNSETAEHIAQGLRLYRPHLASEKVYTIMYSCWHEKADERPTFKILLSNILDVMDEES
ASK1 (h), sequence (Q99683 649-946 limits assumed): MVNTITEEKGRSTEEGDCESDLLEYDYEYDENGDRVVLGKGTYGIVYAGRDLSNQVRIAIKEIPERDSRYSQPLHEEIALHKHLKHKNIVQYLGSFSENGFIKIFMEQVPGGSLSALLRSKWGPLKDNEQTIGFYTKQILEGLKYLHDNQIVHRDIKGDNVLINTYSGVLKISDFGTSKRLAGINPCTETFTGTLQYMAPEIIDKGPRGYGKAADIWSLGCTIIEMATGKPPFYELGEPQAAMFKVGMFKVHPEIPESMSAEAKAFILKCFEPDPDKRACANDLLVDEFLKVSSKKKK
KDR (tl), sequence (P35968 790-1356 limits assumed): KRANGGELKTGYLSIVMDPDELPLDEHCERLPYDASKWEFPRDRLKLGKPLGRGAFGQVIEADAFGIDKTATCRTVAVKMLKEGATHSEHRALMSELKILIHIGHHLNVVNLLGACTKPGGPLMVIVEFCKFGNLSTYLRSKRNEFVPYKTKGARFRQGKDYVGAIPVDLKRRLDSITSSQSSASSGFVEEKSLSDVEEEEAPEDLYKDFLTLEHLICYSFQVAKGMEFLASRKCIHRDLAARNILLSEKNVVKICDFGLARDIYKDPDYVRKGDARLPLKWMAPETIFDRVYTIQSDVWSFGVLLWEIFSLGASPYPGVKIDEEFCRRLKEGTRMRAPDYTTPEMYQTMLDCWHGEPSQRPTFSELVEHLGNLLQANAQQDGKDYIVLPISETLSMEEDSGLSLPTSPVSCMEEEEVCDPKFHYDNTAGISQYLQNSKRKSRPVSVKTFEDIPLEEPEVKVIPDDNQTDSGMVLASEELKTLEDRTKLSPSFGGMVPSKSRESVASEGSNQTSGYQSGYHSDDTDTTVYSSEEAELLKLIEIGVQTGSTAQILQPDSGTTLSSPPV
JNK1α1 (h), sequence (P45983 other isoform, or with tags, fused parts or gaps limits assumed): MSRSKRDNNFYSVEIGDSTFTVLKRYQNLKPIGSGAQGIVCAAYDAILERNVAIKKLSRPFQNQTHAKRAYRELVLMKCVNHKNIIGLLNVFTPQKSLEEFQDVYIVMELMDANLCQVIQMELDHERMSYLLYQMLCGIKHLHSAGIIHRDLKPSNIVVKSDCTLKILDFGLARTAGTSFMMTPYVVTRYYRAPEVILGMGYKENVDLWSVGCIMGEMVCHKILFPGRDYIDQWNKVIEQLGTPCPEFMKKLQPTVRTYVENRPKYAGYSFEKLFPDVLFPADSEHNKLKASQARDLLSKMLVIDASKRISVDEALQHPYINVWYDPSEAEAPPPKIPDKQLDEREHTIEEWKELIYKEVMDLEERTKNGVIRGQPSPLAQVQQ
Tie2 (h), sequence (Q02763 771-1124 limits assumed): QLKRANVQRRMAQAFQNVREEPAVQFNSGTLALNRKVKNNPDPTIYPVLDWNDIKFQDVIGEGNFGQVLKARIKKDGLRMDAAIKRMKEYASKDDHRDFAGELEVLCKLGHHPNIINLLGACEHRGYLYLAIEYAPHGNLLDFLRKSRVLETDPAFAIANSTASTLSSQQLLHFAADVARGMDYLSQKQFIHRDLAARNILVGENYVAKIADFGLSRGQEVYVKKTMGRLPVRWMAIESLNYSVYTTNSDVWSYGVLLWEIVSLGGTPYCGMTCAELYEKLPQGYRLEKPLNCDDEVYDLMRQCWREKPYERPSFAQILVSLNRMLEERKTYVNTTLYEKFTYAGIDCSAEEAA

Q: Which results are given for FAKLAARLYRKALARQLGVAA?
A: Profile-1 @ = 100 µm (kinase profiler assay) (CHK1 (h)): 54; Profile-1 @ = 100 µm (kinase profiler assay) (DYRK2 (h)): -11; Profile-1 @ = 100 µm (kinase profiler assay) (ASK1 (h)): 53; Profile-1 @ = 100 µm (kinase profiler assay) (Ret (h)): 89; Profile-1 @ = 100 µm (kinase profiler assay) (Tie2 (h)): 0; Profile-1 @ = 100 µm (kinase profiler assay) (MKK4 (m)): 90; Profile-1 @ = 100 µm (kinase profiler assay) (JNK1α1 (h)): 91; Profile-1 @ = 100 µm (kinase profiler assay) (KDR (tl)): 78; Profile-1 @ = 100 µm (kinase profiler assay) (BTK (h)): 19; Profile-1 @ = 100 µm (kinase profiler assay) (Lck (h)): 493; Profile-1 @ = 100 µm (kinase profiler assay) (L1MK1 (h)): 92; Profile-1 @ = 100 µm (kinase profiler assay) (PRAK): 131
